The values below come from patent publication US20200010513A1.

What all share (test): cell-based or functional assay
Assay [1] addresses TM-CIBN-NES-TEV-N-BLITz-6-tTA.
In assay [2] the target is TM-CIBN-TEV-N-TEVseq-tTA with intact TEVseq without a fusion to the AsLOV2 protein.
Assay [3] addresses TM-CIBN-NES-TEV-N-BLITz-1-tTA.

Turning to NES-CRY2PHR-TEV-C, the SEAP assay, fold gene expression by blue light (HEK293T cells) in assay [1] and in assay [3] was above 20 fold each time. The SEAP assay, fold change of gene expression by blue light (HEK293T cells) in assay [2] turned out to be 1.4 fold.
